{"source": "paper PMC2172855", "biological_target": "microtubules of cultured mouse hippocampal neurons (mouse (endogenous in cultured hippocampal neurons)) (UniProt P68369)", "assay": "immunostaining of cells or tissue", "data": [{"substance": "tailless KIF5B G234A::YFP (from UniProt Q61768 1-761) (domain or fragment)", "values": [{"measurement": "fluorescence ratio of rigor-KIF5::GFP to tubulin staining, in axons", "value": 1.2}, {"measurement": "fluorescence ratio of rigor-KIF5::GFP to tubulin staining, in dendrites", "value": 0.5}]}]}
